Two molecules from paper PMC2494536 (Cell, 2008) can be followed below.

B1: kinase domain of wildtype chicken c-Src, residues 251-533 (domain or fragment, UniProt P00523 251-533, looked up)
chain: QTQGLAKDAWEIPRESLRLEVKLGQGCFGEVWMGTWNGTTRVAIKTLKPGTMSPEAFLQEAQVMKKLRHEKLVQLYAVVSEEPIYIVTEYMSKGSLLDFLKGEMGKYLRLPQLVDMAAQIASGMAYVERMNYVHRDLRAANILVGENLVCKVADFGLARLIEDNEYTARQGAKFPIKWTAPEAALYGRFTIKSDVWSFGILLTELTTKGRVPYPGMVNREVLDQVERGYRMPCPPECPESLHDLMCQCWRKDPEERPTFEYLQAFLEDYFTSTEPQYQPGENL
B2: kinase domain of Csk, residues 187-450 (domain or fragment, UniProt P41240 187-450, looked up)
chain: GWALNMKELKLLQTIGKGEFGDVMLGDYRGNKVAVKCIKNDATAQAFLAEASVMTQLRHSNLVQLLGVIVEEKGGLYIVTEYMAKGSLVDYLRSRGRSVLGGDCLLKFSLDVCEAMEYLEGNNFVHRDLAARNVLVSEDNVAKVSDFGLTKEASSTQDTGKLPVKWTAPEALREKKFSTKSDVWSFGILLWEIYSFGRVPYPRIPLKDVVPRVEKGYKMDAPDGCPPAVYEVMKNCWHLDAAMRPSFLQLREQLEHIKTHELHL

Where two headings read alike, the source gives them in different places.

Experiment in all cases: SPR
On the technique in general: In SPR one partner is held on a chip, and binding of the other changes the refractive index at the surface.

Assay [1] has as its target T1, full-length Csk (C-terminal Src Kinase), residues 1-450 (UniProt P41240 1-450).
Assay [2] has as its target T2, Csk construct lacking the SH3 domain (SH2 and kinase domains), residues 68-450 (UniProt P41240 68-450).
For assay [3], the target named is T1, full-length Csk (C-terminal Src …). The source holds these as a separate data set.
Assay [4] concerns the target T2, Csk construct lacking the SH3 domain …. This is another data set of the same source.
Assay [5] deals with B1.

B1: the Kd (in general, the constant that tells how readily two partners part at equilibrium) in assay [1] was about 4 µM; in assay [2] it was about 4 µM; in assay [3] it was about 30 µM; in assay [4] it was about 30 µM.

In assay [5], B2 gave a Kd of about 70 µM.
